Test results from US20140241984A1.
Numbering of substitutions follows the chain as printed.

B1: Syn-F1 (antibody, V domains shown)
VH: DVQLVESGGDLVQPGGSRKLSCAASGFTFSSFGMHWVRQAPEKGLEWVAYINSGSSTIYYADTVKGRFTISRDNPKNTLFLQMTSLRSEDTAMYYCARGNNPGTGYYYSMDYWGQGTSVTVSS
VL: not shown
B2: Syn-F2 (antibody, IgG2a, V domains shown)
VH: B1 VH with D10G, N52S, S109A
VL: not shown
B3: Syn-O1 (antibody, IgG2b, V domains shown)
VH: EVQLVESGGGLVQPKGSLKLSCAASGFTFNTYAMHWVRQAPGKGLEWVARIRSKSSNYATYYADSVKDRFTISRDDSQSMLYLQMNNLKTEDTAMYYCVRPLKWYFDVWGTGTTVTVSS
VL: QIVLTQSPAILSASPGEKVTMTCSASSTVNYMHWYQQKSGTSPKIWIYDTSKLASGVPARFSGSGSWTSYSLTISSMEAEDAATYYCQQWNSNPPTFGAGTKLELK
B4: Syn-O4 (antibody, IgG1, V domains shown)
VH: B3 VH
VL: B3 VL
B5: Syn-O2 (antibody, IgG1, V domains shown)
VH: B3 VH
VL: B3 VL
B6: Syn-O3 (antibody, IgG1, V domains shown)
VH: B3 VH
VL: B3 VL

Target: α-synuclein fibrils (human), P37840
Test: inhibition ELISA; fibrils against monomers
Conditions: remark: other sources report otherwise

Fold Affinity to Fibrils [fold]	Binder
16600	B1
3140	B2
12700	B3
6930	B4
27300	B5
11100	B6

Target: α-synuclein fibrils (human), P37840
Test: SPR, BIAcore X100; fibrils immobilised on CM5, mAb injected at 0.01-10 nM
Conditions: remark: other sources report otherwise

Kd [nM]	koff [s⁻¹]	kon [M⁻¹ s⁻¹]	Binder
0.127	0.00156	1.23e+07	B1
2.69	0.00338	1.26e+06	B2
0.016	9.36e-05	5.86e+06	B3
0.138	0.000996	7.24e+06	B4
0.0969	0.00127	1.31e+07	B5
0.171	0.000379	2.22e+06	B6
